Results reported in PMC10421740, “A universal deep-learning model for zinc finger design enables transcription factor reprogramming”.

How the values were obtained:
[1] = target: ZFN pair Astr 25ABC + Astr 25FED (synthetic construct, UniProt P14870;P14870 384-579;384-579); experiment: Zn; U2OS eGFP disruption, 3 days after nucleofection; details: tags: N-terminal 3xFLAG and SV40 NLS (kept in the assay, left out here); copies: 1;1
[2] = target: ZFN pair Astr 29ABC + Astr 29FED (synthetic construct, UniProt P14870;P14870 384-579;384-579); experiment: as above; details: tags: N-terminal 3xFLAG and SV40 NLS (kept in the assay, left out here); copies: 1;1
[3] = target: ZFN pair Astr 2ABC + Astr 2FED (synthetic construct, UniProt P14870;P14870 384-579;384-579); experiment: as above; details: tags: N-terminal 3xFLAG and SV40 NLS (kept in the assay, left out here); copies: 1;1
Sequence of ZFN pair Astr 2ABC + Astr 2FED (P14870 other isoform, or with tags, fused parts or gaps, chain 1 of 2): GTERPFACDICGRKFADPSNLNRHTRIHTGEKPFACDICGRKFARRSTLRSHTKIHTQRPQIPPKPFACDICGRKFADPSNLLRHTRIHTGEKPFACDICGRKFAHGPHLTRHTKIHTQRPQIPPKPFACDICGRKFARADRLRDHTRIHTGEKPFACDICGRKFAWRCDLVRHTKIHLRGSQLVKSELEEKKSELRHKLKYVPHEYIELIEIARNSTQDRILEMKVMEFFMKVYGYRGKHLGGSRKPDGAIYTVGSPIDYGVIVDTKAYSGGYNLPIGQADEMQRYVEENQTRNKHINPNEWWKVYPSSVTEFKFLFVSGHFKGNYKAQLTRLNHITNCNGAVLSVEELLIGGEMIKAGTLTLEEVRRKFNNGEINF
Sequence of ZFN pair Astr 2ABC + Astr 2FED (P14870 other isoform, or with tags, fused parts or gaps, chain 2 of 2): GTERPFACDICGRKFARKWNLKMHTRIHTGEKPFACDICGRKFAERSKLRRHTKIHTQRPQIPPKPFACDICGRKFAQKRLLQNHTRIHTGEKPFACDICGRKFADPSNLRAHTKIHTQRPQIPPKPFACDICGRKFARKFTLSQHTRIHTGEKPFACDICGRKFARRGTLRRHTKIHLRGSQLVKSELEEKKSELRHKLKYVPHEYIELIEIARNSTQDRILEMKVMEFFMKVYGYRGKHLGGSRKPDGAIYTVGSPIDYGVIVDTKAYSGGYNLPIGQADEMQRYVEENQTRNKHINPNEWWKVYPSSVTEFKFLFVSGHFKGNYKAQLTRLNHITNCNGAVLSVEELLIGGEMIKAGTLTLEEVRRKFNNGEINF

[4] = target: ZFN pair Astr 27ABC + Astr 27FED (synthetic construct, UniProt P14870;P14870 384-579;384-579); experiment: as above; details: tags: N-terminal 3xFLAG and SV40 NLS (kept in the assay, left out here); copies: 1;1
[5] = target: ZFN pair Astr 28ABC + Astr 28FED (synthetic construct, UniProt P14870;P14870 384-579;384-579); experiment: as above; details: tags: N-terminal 3xFLAG and SV40 NLS (kept in the assay, left out here); copies: 1;1
Sequence of ZFN pair Astr 28ABC + Astr 28FED (P14870 other isoform, or with tags, fused parts or gaps, chain 1 of 2): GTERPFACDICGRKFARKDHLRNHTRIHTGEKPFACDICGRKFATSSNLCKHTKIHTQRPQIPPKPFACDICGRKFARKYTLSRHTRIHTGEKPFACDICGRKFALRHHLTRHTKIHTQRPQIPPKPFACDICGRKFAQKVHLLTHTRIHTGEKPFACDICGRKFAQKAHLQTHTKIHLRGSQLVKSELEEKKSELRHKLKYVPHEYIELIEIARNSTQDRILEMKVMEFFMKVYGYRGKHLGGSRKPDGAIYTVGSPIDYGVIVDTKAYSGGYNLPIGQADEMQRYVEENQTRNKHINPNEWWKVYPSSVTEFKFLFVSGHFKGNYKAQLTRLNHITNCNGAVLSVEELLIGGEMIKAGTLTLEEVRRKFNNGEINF
Sequence of ZFN pair Astr 28ABC + Astr 28FED (P14870 other isoform, or with tags, fused parts or gaps, chain 2 of 2): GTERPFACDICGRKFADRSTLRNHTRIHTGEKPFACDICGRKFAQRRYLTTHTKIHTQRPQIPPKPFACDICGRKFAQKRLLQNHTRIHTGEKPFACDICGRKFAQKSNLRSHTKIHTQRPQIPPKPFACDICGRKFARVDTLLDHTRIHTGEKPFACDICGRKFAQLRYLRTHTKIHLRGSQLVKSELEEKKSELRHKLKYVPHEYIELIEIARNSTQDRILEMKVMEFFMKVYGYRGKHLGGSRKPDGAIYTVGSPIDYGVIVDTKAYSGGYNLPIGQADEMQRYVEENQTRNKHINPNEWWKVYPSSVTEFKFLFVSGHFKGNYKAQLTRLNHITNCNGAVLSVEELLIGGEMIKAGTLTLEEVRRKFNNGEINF

[6] = target: ZFN pair Astr 31ABC + Astr 31FED (synthetic construct, UniProt P14870;P14870 384-579;384-579); experiment: as above; details: tags: N-terminal 3xFLAG and SV40 NLS (kept in the assay, left out here); copies: 1;1
[7] = target: ZFN pair Astr 20ABC + Astr 20FED (synthetic construct, UniProt P14870;P14870 384-579;384-579); experiment: as above; details: tags: N-terminal 3xFLAG and SV40 NLS (kept in the assay, left out here); copies: 1;1
[8] = target: ZIM3 reprogrammed with array Tet2 For (synthetic construct, UniProt Q96PE6 1-166); experiment: Zn; HEK293T, 7x tetO CMV eGFP reporter
[9] = target: ZIM3 reprogrammed with array Tet1 For (synthetic construct, UniProt Q96PE6 1-166); experiment: Zn; HEK293T, 7x tetO CMV eGFP reporter
Sequence of ZIM3 reprogrammed with array Tet1 For (Q96PE6 other isoform, or with tags, fused parts or gaps): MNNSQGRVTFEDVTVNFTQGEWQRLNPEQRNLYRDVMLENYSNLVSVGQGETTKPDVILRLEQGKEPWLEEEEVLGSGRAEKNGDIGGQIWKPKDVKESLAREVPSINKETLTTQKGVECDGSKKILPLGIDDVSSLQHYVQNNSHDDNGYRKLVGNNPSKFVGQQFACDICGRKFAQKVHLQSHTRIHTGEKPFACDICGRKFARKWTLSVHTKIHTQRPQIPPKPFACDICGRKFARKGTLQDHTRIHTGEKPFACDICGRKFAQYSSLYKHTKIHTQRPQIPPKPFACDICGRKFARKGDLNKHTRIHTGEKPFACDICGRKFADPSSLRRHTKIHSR

[10] = target: T1, KLF6 reprogrammed with array Tet1 For (synthetic construct, UniProt Q99612 1-199); experiment: Zn; HEK293T, 7x tetO minimal CMV GFP reporter
T1 chain: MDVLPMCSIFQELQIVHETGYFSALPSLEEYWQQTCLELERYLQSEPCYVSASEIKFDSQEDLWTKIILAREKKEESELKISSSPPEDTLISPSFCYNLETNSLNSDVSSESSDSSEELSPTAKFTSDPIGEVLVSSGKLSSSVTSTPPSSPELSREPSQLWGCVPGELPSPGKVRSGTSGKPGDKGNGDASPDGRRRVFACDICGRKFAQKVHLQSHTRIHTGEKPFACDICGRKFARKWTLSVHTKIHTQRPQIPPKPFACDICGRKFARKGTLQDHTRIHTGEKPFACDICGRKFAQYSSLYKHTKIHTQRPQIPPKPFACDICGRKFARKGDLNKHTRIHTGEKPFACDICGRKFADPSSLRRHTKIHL

[11] = target: T2, KLF6 reprogrammed with array Tet2 For (synthetic construct, UniProt Q99612 1-199); experiment: Zn; HEK293T, 7x tetO minimal CMV GFP reporter
T2 chain: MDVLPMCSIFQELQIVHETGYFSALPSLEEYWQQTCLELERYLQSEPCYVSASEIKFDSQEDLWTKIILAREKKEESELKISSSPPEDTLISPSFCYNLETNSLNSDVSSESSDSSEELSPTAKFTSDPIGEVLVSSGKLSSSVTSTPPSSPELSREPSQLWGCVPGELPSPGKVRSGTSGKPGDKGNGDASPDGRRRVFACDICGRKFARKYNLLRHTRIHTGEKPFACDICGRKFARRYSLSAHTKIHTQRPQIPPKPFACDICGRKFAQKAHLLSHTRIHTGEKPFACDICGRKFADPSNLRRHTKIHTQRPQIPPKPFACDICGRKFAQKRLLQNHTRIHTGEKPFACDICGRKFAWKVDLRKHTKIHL

[12] = target: ZFN pair Astr 24ABC + Astr 24FED (synthetic construct, UniProt P14870;P14870 384-579;384-579); experiment: Zn; U2OS eGFP disruption, 3 days after nucleofection; details: tags: N-terminal 3xFLAG and SV40 NLS (kept in the assay, left out here); copies: 1;1
Sequence of ZFN pair Astr 24ABC + Astr 24FED (P14870 other isoform, or with tags, fused parts or gaps, chain 1 of 2): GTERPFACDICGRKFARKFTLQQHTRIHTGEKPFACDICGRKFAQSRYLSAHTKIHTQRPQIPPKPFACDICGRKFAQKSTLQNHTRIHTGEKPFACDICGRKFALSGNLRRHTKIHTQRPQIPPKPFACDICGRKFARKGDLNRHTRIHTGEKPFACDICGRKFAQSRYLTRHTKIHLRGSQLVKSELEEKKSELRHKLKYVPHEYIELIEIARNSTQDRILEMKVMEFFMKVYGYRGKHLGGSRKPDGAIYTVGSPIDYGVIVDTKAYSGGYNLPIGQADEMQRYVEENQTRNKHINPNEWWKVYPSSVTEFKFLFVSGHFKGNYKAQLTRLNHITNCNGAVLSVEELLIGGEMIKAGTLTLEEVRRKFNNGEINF
Sequence of ZFN pair Astr 24ABC + Astr 24FED (P14870 other isoform, or with tags, fused parts or gaps, chain 2 of 2): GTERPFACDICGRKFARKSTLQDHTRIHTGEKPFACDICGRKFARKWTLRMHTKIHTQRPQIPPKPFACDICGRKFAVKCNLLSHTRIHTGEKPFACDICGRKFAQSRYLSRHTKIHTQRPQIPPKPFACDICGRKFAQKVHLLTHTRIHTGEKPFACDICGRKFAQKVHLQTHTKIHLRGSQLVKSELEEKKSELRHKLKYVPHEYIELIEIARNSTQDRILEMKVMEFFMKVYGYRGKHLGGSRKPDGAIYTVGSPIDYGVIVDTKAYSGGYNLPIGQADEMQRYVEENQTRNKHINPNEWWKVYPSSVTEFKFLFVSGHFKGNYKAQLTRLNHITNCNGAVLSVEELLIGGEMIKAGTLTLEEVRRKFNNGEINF

[13] = target: ZFN pair Astr 12ABC + Astr 12FED (synthetic construct, UniProt P14870;P14870 384-579;384-579); experiment: as above; details: tags: N-terminal 3xFLAG and SV40 NLS (kept in the assay, left out here); copies: 1;1
[14] = target: ZFN pair Astr 18ABC + Astr 18FED (synthetic construct, UniProt P14870;P14870 384-579;384-579); experiment: as above; details: tags: N-terminal 3xFLAG and SV40 NLS (kept in the assay, left out here); copies: 1;1
[15] = target: ZFN pair Astr 22ABC + Astr 22FED (synthetic construct, UniProt P14870;P14870 384-579;384-579); experiment: as above; details: tags: N-terminal 3xFLAG and SV40 NLS (kept in the assay, left out here); copies: 1;1
[16] = target: ZFN pair Astr 30ABC + Astr 30FED (synthetic construct, UniProt P14870;P14870 384-579;384-579); experiment: as above; details: tags: N-terminal 3xFLAG and SV40 NLS (kept in the assay, left out here); copies: 1;1
[17] = target: ZFN pair Astr 10ABC + Astr 10FED (synthetic construct, UniProt P14870;P14870 384-579;384-579); experiment: as above; details: tags: N-terminal 3xFLAG and SV40 NLS (kept in the assay, left out here); copies: 1;1
Sequence of ZFN pair Astr 10ABC + Astr 10FED (P14870 other isoform, or with tags, fused parts or gaps, chain 1 of 2): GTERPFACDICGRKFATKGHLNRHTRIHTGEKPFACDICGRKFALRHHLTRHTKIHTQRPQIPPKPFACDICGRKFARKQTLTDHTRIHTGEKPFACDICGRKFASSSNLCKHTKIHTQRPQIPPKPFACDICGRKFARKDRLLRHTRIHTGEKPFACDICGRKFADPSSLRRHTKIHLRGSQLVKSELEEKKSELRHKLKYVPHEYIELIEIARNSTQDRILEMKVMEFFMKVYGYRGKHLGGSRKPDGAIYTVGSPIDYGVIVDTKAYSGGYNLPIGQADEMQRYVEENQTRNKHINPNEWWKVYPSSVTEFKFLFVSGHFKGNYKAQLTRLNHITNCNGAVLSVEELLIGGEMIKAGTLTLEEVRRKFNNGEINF
Sequence of ZFN pair Astr 10ABC + Astr 10FED (P14870 other isoform, or with tags, fused parts or gaps, chain 2 of 2): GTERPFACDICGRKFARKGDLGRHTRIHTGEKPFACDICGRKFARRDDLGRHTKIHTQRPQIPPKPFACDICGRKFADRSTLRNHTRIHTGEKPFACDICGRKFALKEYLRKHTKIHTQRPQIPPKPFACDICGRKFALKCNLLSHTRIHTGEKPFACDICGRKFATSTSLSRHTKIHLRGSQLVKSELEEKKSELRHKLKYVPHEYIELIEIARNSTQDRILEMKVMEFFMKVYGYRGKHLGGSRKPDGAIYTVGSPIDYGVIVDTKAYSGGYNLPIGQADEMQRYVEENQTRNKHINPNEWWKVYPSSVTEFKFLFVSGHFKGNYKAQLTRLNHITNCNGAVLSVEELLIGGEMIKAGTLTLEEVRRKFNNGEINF

[18] = target: ZFN pair Astr 26ABC + Astr 26FED (synthetic construct, UniProt P14870;P14870 384-579;384-579); experiment: as above; details: tags: N-terminal 3xFLAG and SV40 NLS (kept in the assay, left out here); copies: 1;1
[19] = target: ZFN pair Astr 23ABC + Astr 23FED (synthetic construct, UniProt P14870;P14870 384-579;384-579); experiment: as above; details: tags: N-terminal 3xFLAG and SV40 NLS (kept in the assay, left out here); copies: 1;1
Sequence of ZFN pair Astr 23ABC + Astr 23FED (P14870 other isoform, or with tags, fused parts or gaps, chain 1 of 2): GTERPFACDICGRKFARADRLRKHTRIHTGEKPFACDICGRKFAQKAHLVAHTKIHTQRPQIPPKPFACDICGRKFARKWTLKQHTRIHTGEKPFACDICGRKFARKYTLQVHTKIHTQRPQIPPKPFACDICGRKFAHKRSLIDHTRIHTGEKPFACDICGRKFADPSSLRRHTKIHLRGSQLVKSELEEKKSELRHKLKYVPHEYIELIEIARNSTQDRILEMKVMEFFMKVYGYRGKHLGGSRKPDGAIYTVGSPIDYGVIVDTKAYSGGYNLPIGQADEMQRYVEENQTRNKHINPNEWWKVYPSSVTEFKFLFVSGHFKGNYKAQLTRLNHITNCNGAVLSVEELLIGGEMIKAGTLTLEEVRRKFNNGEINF
Sequence of ZFN pair Astr 23ABC + Astr 23FED (P14870 other isoform, or with tags, fused parts or gaps, chain 2 of 2): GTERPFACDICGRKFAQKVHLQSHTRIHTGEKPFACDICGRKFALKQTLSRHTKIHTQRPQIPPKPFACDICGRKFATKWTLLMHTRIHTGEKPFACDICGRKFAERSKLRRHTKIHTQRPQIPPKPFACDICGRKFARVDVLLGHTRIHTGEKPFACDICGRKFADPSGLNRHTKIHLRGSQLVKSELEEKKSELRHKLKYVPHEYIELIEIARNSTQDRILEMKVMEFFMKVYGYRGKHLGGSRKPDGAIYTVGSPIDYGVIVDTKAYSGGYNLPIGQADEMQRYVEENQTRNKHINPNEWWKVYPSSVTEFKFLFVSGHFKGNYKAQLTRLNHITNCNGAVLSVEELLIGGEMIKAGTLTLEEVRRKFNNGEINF

[20] = target: ZFN pair Astr 1ABC + Astr 1FED (synthetic construct, UniProt P14870;P14870 384-579;384-579); experiment: as above; details: tags: N-terminal 3xFLAG and SV40 NLS (kept in the assay, left out here); copies: 1;1

Sequence of ZFN pair Astr 25ABC + Astr 25FED (P14870 other isoform, or with tags, fused parts or gaps, chain 1 of 2): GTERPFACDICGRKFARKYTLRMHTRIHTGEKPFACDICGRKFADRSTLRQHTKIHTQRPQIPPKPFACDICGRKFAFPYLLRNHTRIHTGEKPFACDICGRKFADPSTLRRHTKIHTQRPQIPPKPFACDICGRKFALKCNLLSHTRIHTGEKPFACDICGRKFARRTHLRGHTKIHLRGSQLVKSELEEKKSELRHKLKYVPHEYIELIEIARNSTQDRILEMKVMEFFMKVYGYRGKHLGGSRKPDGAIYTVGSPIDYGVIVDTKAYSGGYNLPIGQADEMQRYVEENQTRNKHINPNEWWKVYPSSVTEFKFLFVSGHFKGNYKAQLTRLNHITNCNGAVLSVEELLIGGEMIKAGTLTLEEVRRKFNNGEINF
Sequence of ZFN pair Astr 25ABC + Astr 25FED (P14870 other isoform, or with tags, fused parts or gaps, chain 2 of 2): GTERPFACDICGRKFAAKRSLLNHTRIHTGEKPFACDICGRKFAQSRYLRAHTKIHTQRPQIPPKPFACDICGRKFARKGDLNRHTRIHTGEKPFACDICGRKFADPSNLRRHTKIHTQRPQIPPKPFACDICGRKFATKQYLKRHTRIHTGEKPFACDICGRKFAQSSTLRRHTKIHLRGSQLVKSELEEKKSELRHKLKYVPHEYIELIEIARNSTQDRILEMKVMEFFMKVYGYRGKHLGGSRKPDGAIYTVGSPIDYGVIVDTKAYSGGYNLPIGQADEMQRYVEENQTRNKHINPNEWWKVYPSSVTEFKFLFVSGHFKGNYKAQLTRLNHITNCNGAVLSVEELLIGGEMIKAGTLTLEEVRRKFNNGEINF

B1: eGFP site 25 (12 fingers) (dsDNA)
DNA 1: GCGAGGGCGAGGGCGATGCCACCTACGGCAAGCTGACCCTGAAGTTCA
DNA 2: TGAACTTCAGGGTCAGCTTGCCGTAGGTGGCATCGCCCTCGCCCTCGC
In the case of B1, the binding signal [1] is reported as ~39 % GFP-negative cells (higher = more activity).

B2: eGFP site 29 (12 fingers) (dsDNA)
DNA 1: CGGCCACAAGTTCAGCGTGTCCGGCGAGGGCGAGGGCGATGCCACCTA
DNA 2: TAGGTGGCATCGCCCTCGCCCTCGCCGGACACGCTGAACTTGTGGCCG
In the case of B2, the binding signal [2] is reported as ~40 % GFP-negative cells (higher = more activity).

B3: eGFP site 2 (12 fingers) (dsDNA)
DNA 1: AGTTCAGCGTGTCCGGCGAGGGCGAGGGCGATGCCACCTACGGCAAGC
DNA 2: GCTTGCCGTAGGTGGCATCGCCCTCGCCCTCGCCGGACACGCTGAACT
In the case of B3, the binding signal [3] is reported as ~90 % GFP-negative cells (higher = more activity).

B4: eGFP site 27 (12 fingers) (dsDNA)
DNA 1: TCCTGGGGCACAAGCTGGAGTACAACTACAACAGCCACAACGTCTATA
DNA 2: TATAGACGTTGTGGCTGTTGTAGTTGTACTCCAGCTTGTGCCCCAGGA
In the case of B4, the binding signal [4] is reported as ~46 % GFP-negative cells (higher = more activity).

B5: eGFP site 28 (12 fingers) (dsDNA)
DNA 1: TCCAGGAGCGCACCATCTTCTTCAAGGACGACGGCAACTACAAGACCC
DNA 2: GGGTCTTGTAGTTGCCGTCGTCCTTGAAGAAGATGGTGCGCTCCTGGA
With B5 the binding signal [5] was ~32 % GFP-negative cells (higher = more activity).

B6: eGFP site 31 (12 fingers) (dsDNA)
DNA 1: GGCAAGCTGACCCTGAAGTTCATCTGCACCACCGGCAAGCTGCCCGTG
DNA 2: CACGGGCAGCTTGCCGGTGGTGCAGATGAACTTCAGGGTCAGCTTGCC
For B6, the binding signal [6] was ~72 % GFP-negative cells (higher = more activity).

B7: eGFP site 20 (12 fingers) (dsDNA)
DNA 1: TCGAGCTGAAGGGCATCGACTTCAAGGAGGACGGCAACATCCTGGGGC
DNA 2: GCCCCAGGATGTTGCCGTCCTCCTTGAAGTCGATGCCCTTCAGCTCGA
In the case of B7, the binding signal [7] is reported as ~42 % GFP-negative cells (higher = more activity).

B8: tetO (dsDNA)
DNA 1: GTCTCTATCACTGATAGGGAGA
DNA 2: TCTCCCTATCAGTGATAGAGAC
With B8 the binding signal [8] was ~0.51 normalised eGFP fluorescence (lower = more activity, repressor), the binding signal [9] was ~0.68 normalised eGFP fluorescence (lower = more activity, repressor) and the binding signal [10] was ~9500 mean GFP fluorescence (higher = more activity). The binding signal [11] was ~15500 mean GFP fluorescence (higher = more activity).

B9: eGFP site 24 (12 fingers) (dsDNA)
DNA 1: ACAACGTCTATATCATGGCCGACAAGCAGAAGAACGGCATCAAGGTGA
DNA 2: TCACCTTGATGCCGTTCTTCTGCTTGTCGGCCATGATATAGACGTTGT
With B9 the binding signal [12] was ~52 % GFP-negative cells (higher = more activity).

B10: eGFP site 12 (12 fingers) (dsDNA)
DNA 1: TGACCCTGAAGTTCATCTGCACCACCGGCAAGCTGCCCGTGCCCTGGC
DNA 2: GCCAGGGCACGGGCAGCTTGCCGGTGGTGCAGATGAACTTCAGGGTCA
With B10 the binding signal [13] was ~43 % GFP-negative cells (higher = more activity).

B11: eGFP site 18 (12 fingers) (dsDNA)
DNA 1: ACATGAAGCAGCACGACTTCTTCAAGTCCGCCATGCCCGAAGGCTACG
DNA 2: CGTAGCCTTCGGGCATGGCGGACTTGAAGAAGTCGTGCTGCTTCATGT
B11 was tested, and the binding signal [14] was ~71 % GFP-negative cells (higher = more activity).

B12: eGFP site 22 (12 fingers) (dsDNA)
DNA 1: CAAGTTCAGCGTGTCCGGCGAGGGCGAGGGCGATGCCACCTACGGCAA
DNA 2: TTGCCGTAGGTGGCATCGCCCTCGCCCTCGCCGGACACGCTGAACTTG
With B12 the binding signal [15] was ~73 % GFP-negative cells (higher = more activity).

B13: eGFP site 30 (12 fingers) (dsDNA)
DNA 1: CAAGGGCGAGGAGCTGTTCACCGGGGTGGTGCCCATCCTGGTCGAGCT
DNA 2: AGCTCGACCAGGATGGGCACCACCCCGGTGAACAGCTCCTCGCCCTTG
In the case of B13, the binding signal [16] is reported as ~14 % GFP-negative cells (higher = more activity).

B14: eGFP site 10 (12 fingers) (dsDNA)
DNA 1: TGCCACCTACGGCAAGCTGACCCTGAAGTTCATCTGCACCACCGGCAA
DNA 2: TTGCCGGTGGTGCAGATGAACTTCAGGGTCAGCTTGCCGTAGGTGGCA
B14 was tested, and the binding signal [17] was ~78 % GFP-negative cells (higher = more activity).

B15: eGFP site 26 (12 fingers) (dsDNA)
DNA 1: CCGCGCCGAGGTGAAGTTCGAGGGCGACACCCTGGTGAACCGCATCGA
DNA 2: TCGATGCGGTTCACCAGGGTGTCGCCCTCGAACTTCACCTCGGCGCGG
B15 was tested, and the binding signal [18] was ~47 % GFP-negative cells (higher = more activity).

B16: eGFP site 23 (12 fingers) (dsDNA)
DNA 1: GGCATCGACTTCAAGGAGGACGGCAACATCCTGGGGCACAAGCTGGAG
DNA 2: CTCCAGCTTGTGCCCCAGGATGTTGCCGTCCTCCTTGAAGTCGATGCC
With B16 the binding signal [19] was ~35 % GFP-negative cells (higher = more activity).

B17: eGFP site 1 (12 fingers) (dsDNA)
DNA 1: GAGGAGCTGTTCACCGGGGTGGTGCCCATCCTGGTCGAGCTGGACGGC
DNA 2: GCCGTCCAGCTCGACCAGGATGGGCACCACCCCGGTGAACAGCTCCTC
For B17, the binding signal [20] was ~85 % GFP-negative cells (higher = more activity).
